One substance from US20220204602A1 can be followed below.

For assay [1], the target named is Cynomolgus C5 (Cynomolgus). Briefly: BLI (Gator); pH 5.8.
Assay [2] has as its target Cynomolgus C5 (Cynomolgus). Briefly: BLI (Gator); pH 7.4.
A further assay deals with human FcRn (human) (UniProt P55899). Briefly: SPR (Biacore); pH 6.0.
human FcRn (human), sequence (P55899 24-297, chain 1 of 2): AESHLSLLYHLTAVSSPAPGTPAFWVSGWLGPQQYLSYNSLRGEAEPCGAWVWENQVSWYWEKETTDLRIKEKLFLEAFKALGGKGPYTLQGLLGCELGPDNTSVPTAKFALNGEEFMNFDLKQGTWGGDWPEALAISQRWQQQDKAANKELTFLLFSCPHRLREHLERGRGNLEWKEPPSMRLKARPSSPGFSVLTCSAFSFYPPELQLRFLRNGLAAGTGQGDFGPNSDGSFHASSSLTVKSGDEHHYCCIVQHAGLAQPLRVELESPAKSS
human FcRn (human), sequence (main, as listed by the source, chain 2 of 2): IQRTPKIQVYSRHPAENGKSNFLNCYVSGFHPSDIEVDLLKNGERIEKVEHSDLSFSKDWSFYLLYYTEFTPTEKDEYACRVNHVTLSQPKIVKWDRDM

A word on the Kd: it is the constant that tells how readily two partners part at equilibrium. A high value points to a looser complex. On to “anti-C5 mAb/FH SCR1-5 fusion protein FMEH-IgG4PLA-FH1-5 (from UniProt P08603 19-322)”, for which the Kd in assay [1] stood at 41.1 nM; in assay [2], 6.04 nM. In the assay with human FcRn (human), this substance returned a Ka of 1.13e+08 M⁻¹.
